The results in this text go back to IntAct's records for PubMed 19198587.

First the molecules themselves.
B1: Far upstream element-binding protein 2 (Homo sapiens), Q92945 (parent)
chain: MSDYSTGGPPPGPPPPAGGGGGAGGAGGGPPPGPPGAGDRGGGGPGGGGPGGGSAGGPSQPPGGGGPGIRKDAFADAVQRARQIAAKIGGDAATTVNNSTPDFGFGGQKRQLEDGDQPESKKLASQGDSISSQLGPIHPPPRTSMTEEYRVPDGMVGLIIGRGGEQINKIQQDSGCKVQISPDSGGLPERSVSLTGAPESVQKAKMMLDDIVSRGRGGPPGQFHDNANGGQNGTVQEIMIPAGKAGLVIGKGGETIKQLQERAGVKMILIQDGSQNTNVDKPLRIIGDPYKVQQACEMVMDILRERDQGGFGDRNEYGSRIGGGIDVPVPRHSVGVVIGRSGEMIKKIQNDAGVRIQFKQDDGTGPEKIAHIMGPPDRCEHAARIINDLLQSLRSGPPGPPGGPGMPPGGRGRGRGQGNWGPPGGEMTFSIPTHKCGLVIGRGGENVKAINQQTGAFVEISRQLPPNGDPNFKLFIIRGSPQQIDHAKQLIEEKIEGPLCPVGPGPGGPGPAGPMGPFNPGPFNQGPPGAPPHAGGPPPHQYPPQGWGNTYPQWQPPAPHDPSKAAAAAADPNAAWAAYYSHYYQQPPGPVPGPAPAPAAPPAQGEPPQPPPTGQSDYTKAWEEYYKKIGQQPQQPGAPPQQDYTKAWEEYYKKQAQVATGGGPGAPPGSQPDYSAAWAEYYRQQAAYYGQTPGPGGPQPPPTQQGQQQAQ

The variants in the experiment derive from B1. The following applies: with akt1_human AKT1, P31749.
Sequence of akt1_human AKT1, P31749 (P31749 whole entry): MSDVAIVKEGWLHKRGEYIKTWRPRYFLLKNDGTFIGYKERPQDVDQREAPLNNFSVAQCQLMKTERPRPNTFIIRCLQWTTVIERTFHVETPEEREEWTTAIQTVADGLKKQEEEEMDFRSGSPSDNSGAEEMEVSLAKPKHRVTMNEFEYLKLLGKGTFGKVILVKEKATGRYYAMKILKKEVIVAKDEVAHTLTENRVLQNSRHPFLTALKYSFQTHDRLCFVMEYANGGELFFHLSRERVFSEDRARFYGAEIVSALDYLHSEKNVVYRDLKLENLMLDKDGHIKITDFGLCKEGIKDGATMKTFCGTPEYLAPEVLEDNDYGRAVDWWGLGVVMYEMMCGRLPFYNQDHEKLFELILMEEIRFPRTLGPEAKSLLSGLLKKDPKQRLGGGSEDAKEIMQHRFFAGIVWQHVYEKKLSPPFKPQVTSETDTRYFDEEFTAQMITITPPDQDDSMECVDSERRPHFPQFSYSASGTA
Turning to S193A, the “effect of a mutation on the interaction” value was “disrupting interaction”.
